In patent US9862971B2 (BUNDESREPUBLIK DEUTSCHLAND, LETZTVERTRETEN DURCH DEN …, dated 2018):

T1: Human SLAM (signaling lymphocyte-activation molecule) (human, UniProt Q13291)
T1 sequence: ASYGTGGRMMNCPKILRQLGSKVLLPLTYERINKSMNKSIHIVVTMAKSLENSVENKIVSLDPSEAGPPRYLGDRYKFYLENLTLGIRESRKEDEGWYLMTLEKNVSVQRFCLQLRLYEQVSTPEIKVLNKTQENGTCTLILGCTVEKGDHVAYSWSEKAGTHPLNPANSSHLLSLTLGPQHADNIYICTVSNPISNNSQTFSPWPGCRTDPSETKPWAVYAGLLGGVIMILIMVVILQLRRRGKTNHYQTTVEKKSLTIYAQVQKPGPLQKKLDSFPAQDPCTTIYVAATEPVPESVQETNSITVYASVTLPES

B1: HmutscFvCD20Δ19 (other)
chain: MSRIVINREHLMIDRPYVLLAVLFVMFLSLIGLLAIAGIRLHRAAIYTAEIHKSLSTNLDVTNSIEHQVKDVLTPLFKIIGDEVGLRTPQRFTDLVKFISDKIKFLNPDREYDFRDLTWCINPPERIKLDYDQYCADVAAEELMNALVNSTLLETRTTNQFLAVSKGNCSGPTTIRGQFSNMSLSLLDLYLGRGYNVSSIVTMTSQGMYGGTYLVEKPNLSSKRSELSQLSMYRVFEVGVIRNPGLGAPVFHMTNYLEQPVSNDLSNCMVALGELKLAALCHGEDSITIPYQGSGKGVSFQLVKLGVWKSPTDMQSWVPLSTDDPVIDRLYLSSHRGVIADNQAKWAVPTTRTDDKLRMETCFQQACKGKIQALCENPEWAPLKDNRIPSYGVLSVDLSLTVELKIKIASGFGPLITHGSGMDLYKSNHNNVYWLTIPPMKNLALGVINTLEWIPRFKVSPALFTVPIKEAGGDCHAPTYLPAEVDGDVKLSSNLVILPGQDLQYVLATYDTSAVEHAVVYYVYSPSRLSSYFYPFRLPIKGVPIELQVECFTWDQKLWCRHFCVLADSESGGHITHSGMVGMGVSCTVTREDGTNAAQPAIEGRMAQVQLVQSGAELVKPGASVKMSCKASGYTFTSYNMHWVKQTPGQGLEWIGAIYPGNGDTSYNQKFKGKATLTADKSSSTAYMQLSSLTSEDSAVYYCARAQLRPNYWYFDVWGAGTTVTVSKISGGGGSGGGGSGGGGSGGSSDIVLSQSPAILSASPGEKVTMTCRASSSVSYMHWYQQKPGSSPKPWIYATSNLASGVPARFSGSGSGTSYSLTISRVEAEDAATYYCQQWISNPPTFGAGTKLELKAAARGSHHHHHH
B2: HmutscFvCD20Δ18 (other)
chain: MGSRIVINREHLMIDRPYVLLAVLFVMFLSLIGLLAIAGIRLHRAAIYTAEIHKSLSTNLDVTNSIEHQVKDVLTPLFKIIGDEVGLRTPQRFTDLVKFISDKIKFLNPDREYDFRDLTWCINPPERIKLDYDQYCADVAAEELMNALVNSTLLETRTTNQFLAVSKGNCSGPTTIRGQFSNMSLSLLDLYLGRGYNVSSIVTMTSQGMYGGTYLVEKPNLSSKRSELSQLSMYRVFEVGVIRNPGLGAPVFHMTNYLEQPVSNDLSNCMVALGELKLAALCHGEDSITIPYQGSGKGVSFQLVKLGVWKSPTDMQSWVPLSTDDPVIDRLYLSSHRGVIADNQAKWAVPTTRTDDKLRMETCFQQACKGKIQALCENPEWAPLKDNRIPSYGVLSVDLSLTVELKIKIASGFGPLITHGSGMDLYKSNHNNVYWLTIPPMKNLALGVINTLEWIPRFKVSPALFTVPIKEAGGDCHAPTYLPAEVDGDVKLSSNLVILPGQDLQYVLATYDTSAVEHAVVYYVYSPSRLSSYFYPFRLPIKGVPIELQVECFTWDQKLWCRHFCVLADSESGGHITHSGMVGMGVSCTVTREDGTNAAQPAIEGRMAQVQLVQSGAELVKPGASVKMSCKASGYTFTSYNMHWVKQTPGQGLEWIGAIYPGNGDTSYNQKFKGKATLTADKSSSTAYMQLSSLTSEDSAVYYCARAQLRPNYWYFDVWGAGTTVTVSKISGGGGSGGGGSGGGGSGGSSDIVLSQSPAILSASPGEKVTMTCRASSSVSYMHWYQQKPGSSPKPWIYATSNLASGVPARFSGSGSGTSYSLTISRVEAEDAATYYCQQWISNPPTFGAGTKLELKAAARGSHHHHHH
B3: HmutEGFΔ24+4A (other)
chain: MAAAANREHLMIDRPYVLLAVLFVMFLSLIGLLAIAGIRLHRAAIYTAEIHKSLSTNLDVTNSIEHQVKDVLTPLFKIIGDEVGLRTPQRFTDLVKFISDKIKFLNPDREYDFRDLTWCINPPERIKLDYDQYCADVAAEELMNALVNSTLLETRTTNQFLAVSKGNCSGPTTIRGQFSNMSLSLLDLYLGRGYNVSSIVTMTSQGMYGGTYLVEKPNLSSKRSELSQLSMYRVFEVGVIRNPGLGAPVFHMTNYLEQPVSNDLSNCMVALGELKLAALCHGEDSITIPYQGSGKGVSFQLVKLGVWKSPTDMQSWVPLSTDDPVIDRLYLSSHRGVIADNQAKWAVPTTRTDDKLRMETCFQQACKGKIQALCENPEWAPLKDNRIPSYGVLSVDLSLTVELKIKIASGFGPLITHGSGMDLYKSNHNNVYWLTIPPMKNLALGVINTLEWIPRFKVSPALFTVPIKEAGGDCHAPTYLPAEVDGDVKLSSNLVILPGQDLQYVLATYDTSAVEHAVVYYVYSPSRLSSYFYPFRLPIKGVPIELQVECFTWDQKLWCRHFCVLADSESGGHITHSGMVGMGVSCTVTREDGTNAAQPAMANSDSECPLSHDGYCLHDGVCMYIEALDKYACNCVVGYIGERCQYRDLKWWELRAAARGSHHHHHH
B4: HmutEGFΔ19 (other)
chain: MSRIVINREHLMIDRPYVLLAVLFVMFLSLIGLLAIAGIRLHRAAIYTAEIHKSLSTNLDVTNSIEHQVKDVLTPLFKIIGDEVGLRTPQRFTDLVKFISDKIKFLNPDREYDFRDLTWCINPPERIKLDYDQYCADVAAEELMNALVNSTLLETRTTNQFLAVSKGNCSGPTTIRGQFSNMSLSLLDLYLGRGYNVSSIVTMTSQGMYGGTYLVEKPNLSSKRSELSQLSMYRVFEVGVIRNPGLGAPVFHMTNYLEQPVSNDLSNCMVALGELKLAALCHGEDSITIPYQGSGKGVSFQLVKLGVWKSPTDMQSWVPLSTDDPVIDRLYLSSHRGVIADNQAKWAVPTTRTDDKLRMETCFQQACKGKIQALCENPEWAPLKDNRIPSYGVLSVDLSLTVELKIKIASGFGPLITHGSGMDLYKSNHNNVYWLTIPPMKNLALGVINTLEWIPRFKVSPALFTVPIKEAGGDCHAPTYLPAEVDGDVKLSSNLVILPGQDLQYVLATYDTSAVEHAVVYYVYSPSRLSSYFYPFRLPIKGVPIELQVECFTWDQKLWCRHFCVLADSESGGHITHSGMVGMGVSCTVTREDGTNAAQPAMANSDSECPLSHDGYCLHDGVCMYIEALDKYACNCVVGYIGERCQYRDLKWWELRAAARGSHHHHHH
B5: HmutscFvCD20Δ24+4A (other)
chain: MAAAANREHLMIDRPYVLLAVLFVMFLSLIGLLAIAGIRLHRAAIYTAEIHKSLSTNLDVTNSIEHQVKDVLTPLFKIIGDEVGLRTPQRFTDLVKFISDKIKFLNPDREYDFRDLTWCINPPERIKLDYDQYCADVAAEELMNALVNSTLLETRTTNQFLAVSKGNCSGPTTIRGQFSNMSLSLLDLYLGRGYNVSSIVTMTSQGMYGGTYLVEKPNLSSKRSELSQLSMYRVFEVGVIRNPGLGAPVFHMTNYLEQPVSNDLSNCMVALGELKLAALCHGEDSITIPYQGSGKGVSFQLVKLGVWKSPTDMQSWVPLSTDDPVIDRLYLSSHRGVIADNQAKWAVPTTRTDDKLRMETCFQQACKGKIQALCENPEWAPLKDNRIPSYGVLSVDLSLTVELKIKIASGFGPLITHGSGMDLYKSNHNNVYWLTIPPMKNLALGVINTLEWIPRFKVSPALFTVPIKEAGGDCHAPTYLPAEVDGDVKLSSNLVILPGQDLQYVLATYDTSAVEHAVVYYVYSPSRLSSYFYPFRLPIKGVPIELQVECFTWDQKLWCRHFCVLADSESGGHITHSGMVGMGVSCTVTREDGTNAAQPAIEGRMAQVQLVQSGAELVKPGASVKMSCKASGYTFTSYNMHWVKQTPGQGLEWIGAIYPGNGDTSYNQKFKGKATLTADKSSSTAYMQLSSLTSEDSAVYYCARAQLRPNYWYFDVWGAGTTVTVSKISGGGGSGGGGSGGGGSGGSSDIVLSQSPAILSASPGEKVTMTCRASSSVSYMHWYQQKPGSSPKPWIYATSNLASGVPARFSGSGSGTSYSLTISRVEAEDAATYYCQQWISNPPTFGAGTKLELKAAARGSHHHHHH
B6: HmutEGFΔ18 (other)
chain: MGSRIVINREHLMIDRPYVLLAVLFVMFLSLIGLLAIAGIRLHRAAIYTAEIHKSLSTNLDVTNSIEHQVKDVLTPLFKIIGDEVGLRTPQRFTDLVKFISDKIKFLNPDREYDFRDLTWCINPPERIKLDYDQYCADVAAEELMNALVNSTLLETRTTNQFLAVSKGNCSGPTTIRGQFSNMSLSLLDLYLGRGYNVSSIVTMTSQGMYGGTYLVEKPNLSSKRSELSQLSMYRVFEVGVIRNPGLGAPVFHMTNYLEQPVSNDLSNCMVALGELKLAALCHGEDSITIPYQGSGKGVSFQLVKLGVWKSPTDMQSWVPLSTDDPVIDRLYLSSHRGVIADNQAKWAVPTTRTDDKLRMETCFQQACKGKIQALCENPEWAPLKDNRIPSYGVLSVDLSLTVELKIKIASGFGPLITHGSGMDLYKSNHNNVYWLTIPPMKNLALGVINTLEWIPRFKVSPALFTVPIKEAGGDCHAPTYLPAEVDGDVKLSSNLVILPGQDLQYVLATYDTSAVEHAVVYYVYSPSRLSSYFYPFRLPIKGVPIELQVECFTWDQKLWCRHFCVLADSESGGHITHSGMVGMGVSCTVTREDGTNAAQPAMANSDSECPLSHDGYCLHDGVCMYIEALDKYACNCVVGYIGERCQYRDLKWWELRAAARGSHHHHHH

Legend:
Assay in all cases: cell-based or functional assay
human CD20 = human CD20 (human, UniProt P11836)
CD46 [1] = molecular target: T2, CD46 (human, UniProt P15529)
CD46 [2] = molecular target: T2, CD46; remark: listed apart in the source
Human SLAM (signaling …) = molecular target: T1, Human SLAM (signaling …)
EGF-receptor = EGF-receptor (Homo sapiens (Human), UniProt P00533)

Binder | titer [t.u./ml] of HIV-1 vector particles on HT1080-CD20 cells, concentrated supernatant (human CD20) [t.u./ml] | titer [t.u./ml] of HIV-1 vector particles on HT1080 cells, concentrated supernatant (CD46 [1]) [t.u./ml] | titer [t.u./ml] of HIV-1 vector particles on CHO-BC1 cells, concentrated supernatant (CD46 [2]) [t.u./ml] | titer [t.u./ml] of HIV-1 vector particles on CHO-hSLAM cells, concentrated supernatant (Human SLAM (signaling …)) [t.u./ml] | titer [t.u./ml] of HIV-1 vector particles on A-431 cells, concentrated supernatant (EGF-receptor) [t.u./ml]
B1 | 1.32e+06 |  |  |  | 
B2 | 200000 | 980 |  |  | 
B3 |  |  | 800 | 960 | 58000
B4 |  |  | 0 | 160 | 22000
B5 | 8600 | 200 |  |  | 
B6 |  |  | 0 | 280 | 270000
